Consider 11 molecules from US20240209086A1 (PETMEDIX, published 2024).

Substitutions are numbered along the chain they refer to.

As a reminder, the Kd is a measure of binding affinity in units of concentration. A lower Kd goes with higher affinity.

T1: canine CD20 on cells (HEK293, MDCK II, CLBL-1 or native B cells) (canine, UniProt Q3C2E2 1-297)
T1 construct: also called dCD20; cCD20
T1 chain: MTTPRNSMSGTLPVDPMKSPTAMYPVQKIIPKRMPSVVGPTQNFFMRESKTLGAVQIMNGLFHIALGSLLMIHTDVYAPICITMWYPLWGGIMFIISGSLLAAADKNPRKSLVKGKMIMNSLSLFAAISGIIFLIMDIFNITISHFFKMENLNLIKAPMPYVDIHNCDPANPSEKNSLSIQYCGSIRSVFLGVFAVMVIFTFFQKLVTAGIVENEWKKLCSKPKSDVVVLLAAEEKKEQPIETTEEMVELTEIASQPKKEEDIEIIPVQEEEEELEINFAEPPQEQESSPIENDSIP

B1: PMX172 in bispecific format (canine CD3 arm PMX172 x Rituximab arm, human IgG4PE knob-in-hole) (bispecific antibody)
heavy 1: EVQLVESGGDLVKPGGSLRLSCVASGFTFSSYHMSWVRQAPGKGLQWVAYSNSGGSRTSYADAVKGRFTISRDNAKNTLYLQMNSLRAEDTAVYYCASEGGGGRYGYKDYGMDYWGHGTSLFVSSASTKGPSVFPLAPCSRSTSESTAALGCLVKDYFPEPVTVSWNSGALTSGVHTFPAVLQSSGLYSLSSVVTVPSSSLGTKTYTCNVDHKPSNTKVDKRVESKYGPPCPPCPAPEFEGGPSVFLFPPKPKDTLMISRTPEVTCVVVDVSQEDPEVQFNWYVDGVEVHNAKTKPREEQFNSTYRVVSVLTVLHQDWLNGKEYKCKVSNKGLPSSIEKTISKAKGQPREPQVYTLPPSQCEMTKNQVSLSCAVKGFYPSDIAVEWESNGQPENNYKTTPPVLDSDGSFFLVSRLTVDKSRWQEGNVFSCSVMHEALHNRFTQKSLSLSLGK
light 1: SYVLTQLPSKNVTLKQPAHITCGGDNIGSKSVHWYQQKLGQAPVLIIYYDSSRPTGIPERFSGANSGNTATLTISGALAEDEADYYCQVWDSSAKAWVFGEGTQLTVLRTVAAPSVFIFPPSDEQLKSGTASVVCLLNNFYPREAKVQWKVDNALQSGNSQESVTEQDSKDSTYSLSSTLTLSKADYEKHKVYACEVTHQGLSSPVTKSFNRGEC
heavy 2: not shown
light 2: QIVLSQSPAILSASPGEKVTMTCRASSSVSYIHWFQQKPGSSPKPWIYATSNLASGVPVRFSGSGSGTSYSLTISRVEAEDAATYYCQQWTSNPPTFGGGTKLEIKRTVAAPSVFIFPPSDEQLKSGTASVVCLLNNFYPREAKVQWKVDNALQSGNSQESVTEQDSKDSTYSLSSTLTLSKADYEKHKVYACEVTHQGLSSPVTKSFNRGEC
B2: PMX189 in bispecific format (canine CD3 arm PMX189 x Rituximab arm, human IgG4PE knob-in-hole) (bispecific antibody)
heavy 1: ELTLQESGPGLVKPSQTLSLTCVVSGGSVTNNYYWNWIRQRPGRGLEWMGYWTGSTKYNPAFQGRISITADTANNQFSLHLNSMSSEDTAVYYCARDRDRRVPHAYGYWGQGTLVTVSSASTKGPSVFPLAPCSRSTSESTAALGCLVKDYFPEPVTVSWNSGALTSGVHTFPAVLQSSGLYSLSSVVTVPSSSLGTKTYTCNVDHKPSNTKVDKRVESKYGPPCPPCPAPEFEGGPSVFLFPPKPKDTLMISRTPEVTCVVVDVSQEDPEVQFNWYVDGVEVHNAKTKPREEQFNSTYRVVSVLTVLHQDWLNGKEYKCKVSNKGLPSSIEKTISKAKGQPREPQVYTLPPSQCEMTKNQVSLSCAVKGFYPSDIAVEWESNGQPENNYKTTPPVLDSDGSFFLVSRLTVDKSRWQEGNVFSCSVMHEALHNRFTQKSLSLSLGK
light 1: B1 light 1 with W97S, E101G, Q104H
heavy 2: not shown
light 2: B1 light 2
B3: PMX191 in bispecific format (canine CD3 arm PMX191 x Rituximab arm, human IgG4PE knob-in-hole) (bispecific antibody)
heavy 1: EVQLVESGGDLVKPAGSLRLSCVASGFTFSDYSMSWVRQGPEKGLQLVAGMNSDGSTTYYTDAVRGRFTISRDNAKNTMYLQMNSLRDEDTAIYYCAKGAAAPDYWGQGTLVTVSSASTKGPSVFPLAPCSRSTSESTAALGCLVKDYFPEPVTVSWNSGALTSGVHTFPAVLQSSGLYSLSSVVTVPSSSLGTKTYTCNVDHKPSNTKVDKRVESKYGPPCPPCPAPEFEGGPSVFLFPPKPKDTLMISRTPEVTCVVVDVSQEDPEVQFNWYVDGVEVHNAKTKPREEQFNSTYRVVSVLTVLHQDWLNGKEYKCKVSNKGLPSSIEKTISKAKGQPREPQVYTLPPSQCEMTKNQVSLSCAVKGFYPSDIAVEWESNGQPENNYKTTPPVLDSDGSFFLVSRLTVDKSRWQEGNVFSCSVMHEALHNRFTQKSLSLSLGK
light 1: SYELTQPPSVNVTLRETAHITCGGDRIGSKYVQWIQQIPGQAPVVIIYKDNNRPTGIPERFSGANSGNTATLTISGALAEDEADYYCQVGDNYTWVFGEGTQLTVLRTVAAPSVFIFPPSDEQLKSGTASVVCLLNNFYPREAKVQWKVDNALQSGNSQESVTEQDSKDSTYSLSSTLTLSKADYEKHKVYACEVTHQGLSSPVTKSFNRGEC
heavy 2: not shown
light 2: B1 light 2
B4: PMX186 in bispecific format (canine CD3 arm PMX186 x Rituximab arm, human IgG4PE knob-in-hole) (bispecific antibody)
heavy 1: B1 heavy 1 with Q3K, F27V, S31R, H33Y, S51I, R57T, G101V, G103E, R104I, Y110F
light 1: B1 light 1 with S52R
heavy 2: not shown
light 2: B1 light 2
B5: PMX169 in bispecific format (canine CD3 arm PMX169 x Rituximab arm, human IgG4PE knob-in-hole) (bispecific antibody)
heavy 1: B1 heavy 1 with L4V, A24T, T28A, S30N, S31N, S51I, T58I, G103E, R104I, Y107F
light 1: B1 light 1
heavy 2: not shown
light 2: B1 light 2
B6: PMX170 in bispecific format (canine CD3 arm PMX170 x Rituximab arm, human IgG4PE knob-in-hole) (bispecific antibody)
heavy 1: B1 heavy 1 with N84S, Y107F
light 1: B1 light 1
heavy 2: not shown
light 2: B1 light 2
B7: PMX190 in bispecific format (canine CD3 arm PMX190 x Rituximab arm, human IgG4PE knob-in-hole) (bispecific antibody)
heavy 1: EVQLVESGGDLVKPGGSLRLSCVASGFTFSSYQMSWVRQAPGKGLQWVAYISSGGGRTTYADAVRGRLTISRDNAKNTLYLQMNSLRAEDAAVYYCAREGGGEIYGYKDYGMDYWGHGTSLFVSSASTKGPSVFPLAPCSRSTSESTAALGCLVKDYFPEPVTVSWNSGALTSGVHTFPAVLQSSGLYSLSSVVTVPSSSLGTKTYTCNVDHKPSNTKVDKRVESKYGPPCPPCPAPEFEGGPSVFLFPPKPKDTLMISRTPEVTCVVVDVSQEDPEVQFNWYVDGVEVHNAKTKPREEQFNSTYRVVSVLTVLHQDWLNGKEYKCKVSNKGLPSSIEKTISKAKGQPREPQVYTLPPSQCEMTKNQVSLSCAVKGFYPSDIAVEWESNGQPENNYKTTPPVLDSDGSFFLVSRLTVDKSRWQEGNVFSCSVMHEALHNRFTQKSLSLSLGK
light 1: B1 light 1
heavy 2: not shown
light 2: B1 light 2
B8: PMX171 in bispecific format (canine CD3 arm PMX171 x Rituximab arm, human IgG4PE knob-in-hole) (bispecific antibody)
heavy 1: B1 heavy 1 with V23E, S51I, S53N, R57G, Y95F, G103K
light 1: B1 light 1
heavy 2: not shown
light 2: B1 light 2
B9: PMX269 (monospecific anti-canine CD20, canine IgG-B, lambda C5) (antibody, V domains shown)
VH: EVRLVESGGDLVKPGGSLRLSCVASGLTFNRYYMSWVRQGPGKGLQWVAYIDSGGSPTTYADTVKGRFTISRDNAKNTLYLQMNSLRVEDTAVYYCTTLEYWGQGTLVTVSS
VL: SYVLTQLPSKNVTLKQPAHITCGGDNIGSKSVHWYQQKLGQAPVLIIYYDSSRPTGIPERFSGANSGNTATLTISGALAEDEADYYCQVWDTSANVFGGGTHLTVLG
B10: PMX271 (monospecific anti-canine CD20, canine IgG-B, lambda C5) (antibody, V domains shown)
VH: AVQLVESGGDLVKPGGSLRLSCVASGITFSRYHMSWVRQAPGKGLQWVAYINSGGSATSYTDAVKGRFSISRDNGKNTLYLQMNSLRVEDSAVYYCTTLDLWGQGTLVTVSS
VL: B9 VL with S52R, S75N, V89M, T92S
B11: PMX270 (monospecific anti-canine CD20, canine IgG-B, lambda C5) (antibody, V domains shown)
VH: EVQLVESGGDLVKPGGSLRLSCVASGFTFSRYYMTWVRQAPGKGLQWVAYINSDRRSTTYADAVKGRFTISRDNAKNTLYLQMNSLRAEDTAVYYCTTLEYWGQGTLVTVSS
VL: B9 VL with S52R, S75N, T92S

T2 sequence (chain, as listed by the source mutant limits assumed): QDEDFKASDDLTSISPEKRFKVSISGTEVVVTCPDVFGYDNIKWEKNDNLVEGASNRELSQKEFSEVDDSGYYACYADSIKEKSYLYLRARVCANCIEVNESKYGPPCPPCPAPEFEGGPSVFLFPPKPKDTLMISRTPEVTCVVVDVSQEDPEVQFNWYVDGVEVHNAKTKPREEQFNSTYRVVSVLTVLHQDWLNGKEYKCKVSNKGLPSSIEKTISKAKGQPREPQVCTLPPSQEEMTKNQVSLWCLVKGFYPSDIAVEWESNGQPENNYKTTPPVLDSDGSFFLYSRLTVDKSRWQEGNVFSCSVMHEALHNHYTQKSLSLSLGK

The target in one assay is canine CD3 on canine T cells (canine PBMC) (canine, UniProt P27597 22-202). As to the kind of experiment: cell-based or functional assay.
canine CD3 on canine T cells (canine PBMC), sequence (P27597 22-202 limits assumed, chain 1 of 3): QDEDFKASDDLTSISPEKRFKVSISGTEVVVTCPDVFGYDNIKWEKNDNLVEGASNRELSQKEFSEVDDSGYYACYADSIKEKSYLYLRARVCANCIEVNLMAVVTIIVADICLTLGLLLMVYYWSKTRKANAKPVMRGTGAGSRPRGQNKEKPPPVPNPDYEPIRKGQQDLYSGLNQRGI
canine CD3 on canine T cells (canine PBMC), sequence (chain, as listed by the source limits assumed, chain 2 of 3): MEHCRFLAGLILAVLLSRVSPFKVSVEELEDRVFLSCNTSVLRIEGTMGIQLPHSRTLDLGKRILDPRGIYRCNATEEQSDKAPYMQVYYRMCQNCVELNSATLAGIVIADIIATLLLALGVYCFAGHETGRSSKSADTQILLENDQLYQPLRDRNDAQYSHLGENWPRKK
canine CD3 on canine T cells (canine PBMC), sequence (chain, as listed by the source limits assumed, chain 3 of 3): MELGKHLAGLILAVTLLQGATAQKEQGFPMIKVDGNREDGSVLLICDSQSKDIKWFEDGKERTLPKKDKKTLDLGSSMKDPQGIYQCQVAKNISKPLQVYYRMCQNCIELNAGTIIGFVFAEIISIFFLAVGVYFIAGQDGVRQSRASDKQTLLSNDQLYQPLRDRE
In the case of B1, the “EC50 (M) of killing potency, bispecific killing of hCD20+GFP MDCK II cells by canine PBMC” value (shortened to “EC50 (M) of killing potency”) was found to be 4.66e-09 M.

With B2, the “EC50 (M) of killing potency” value amounted to 1.1e-08 M.

For the molecule B3, the “EC50 (M) of killing potency” value was 9.44e-09 M.

As to B4, the “EC50 (M) of killing potency” value came to 1.29e-08 M.

B5: the “EC50 (M) of killing potency” value was 1.4e-08 M.

On to B6, for which the “EC50 (M) of killing potency” value turned out to be 3.32e-09 M.

Take B7: the “EC50 (M) of killing potency” value worked out at 1e-08 M.

B8: the “EC50 (M) of killing potency” value turned out to be 8.52e-09 M.

The target in a further assay is T1, canine CD20 on cells (HEK293, MDCK II, …). Briefly: flow cytometry, canine CD20 HEK293 cells, 10 µg/ml, FITC anti-canine IgG. The protocol:
A CD20 binding screen was performed on candidate proteins produced from the canine CD20 immunisation as described in Examples 2 and 3. CHO cells supernatants containing candidate antibodies were diluted to 10 μg/ml in FACS buffer (PBS containing 3% FBS) and screened for their ability to bind canine CD20 expressed on cell surface. In brief, 1-2×10⁵ canine CD20-expressing HEK cells were incubated with candidate mAbs for one hour at 4° C., at a fixed concentration of 10 μg/ml followed by incubation with 5 μg/ml of FITC-conjugated anti-canine IgG secondary antibody (Bethyl Laboratories) for 1 hour at 4° C. Cells incubated with anti-canine IgG FITC secondary antibody and without primary anti-canine CD20 antibody, or with isotype control primary antibody, were used as negative controls. The data were acquired on either a Beckman Coulter CytoFLEX or a BD Accuri C6 Plus flow cytometer and analysed using FlowJo software.
As to B9, the binding result is “binds”.

For B10, the binding result is “binds”.

With B11, the binding result is reported as “binds”.

The next assay has as its target T2, canine CD3εδ-Fc (heterodimer of canine CD3ε-hIgG4PE-knob and canine CD3δ-hIgG4PE-hole) (canine).
T2 construct: also called CD3εδ-Fc fusion protein; copies: 1 + 1
Briefly: SPR (Biacore 8K), CD3εδ-Fc amine-coupled to CM5 chip, multi-cycle kinetics, antibody 600-7.4 nM. The protocol:
Binding affinity of shortlisted candidates, described in Example 3, were assessed using Biacore 8K (Cytiva). Briefly, a CM5 Sensor Chip (Cytiva) was docked onto a Biacore 8K, equilibrated for 30′ at RT and then Running Buffer (10 mM HEPES pH6 150 mM NaCl 3 mM EDTA and 0.005% Tween20) was applied to the SPR chip surface. Canine CD3εδ-Fc was diluted into 10 mM acetate buffer pH4.5 and immobilised using standard amine coupling reaction. Antibodies dilutions were prepared by diluting the shortlisted candidates from 600 nM to 7.4 nM (5 concentrations with 1:3 dilutions) in running buffer and kinetics was assessed using multi-cycle kinetics method (120 sec association-300 sec dissociation). Kinetics and/or Affinity quantification was performed using Biacore Insight following standard analyses methods.
Background: SPR reads the build-up and loss of mass on a sensor chip optically.
B1 registered a Kd of 0.447 µM.

In turn, B2 registered a Kd of 0.177 µM.

B3 displayed a dissociation constant Kd of 0.0621 µM.

As to B4, binding was put at a Kd of 0.513 µM.

In turn, B5 gave a Kd of 0.854 µM.

For the molecule B6, binding was put at a Kd of 0.304 µM.

The molecule B7 displayed an equilibrium dissociation constant (Kd) of 0.999 µM.

For B8, the dissociation constant Kd came to 0.517 µM.
